{"source": "patent US20240239887A1", "about": "(SUZHOU KANOVA BIOPHARMACEUTICAL, published 2024)", "binders": {"B1": {"name": "anti-TIGIT antibody VH2+VL4 (antibody, human IgG1, kappa)", "heavy": "not shown", "light": "DIVMTQSPDSLAVSLGERATINCSASSSVSYIHWYQQKPGQPPKLLIYRTSNLASGVPDRFSGSGSGTDFTLTISSLQAEDVAVYYCQQYHSNPWTFGGGTKLEIKRTVAAPSVFIFPPSDEQLKSGTASVVCLLNNFYPREAKVQWKVDNALQSGNSQESVTEQDSKDSTYSLSSTLTLSKADYEKHKVYACEVTHQGLSSPVTKSFNRGEC", "notes": "Biotin-labeled in the cynomolgus TIGIT flow cytometry assay; also called HC1 + LC3"}, "B2": {"name": "VH3 + VL3 (antibody, human IgG1, kappa, V domains shown)", "VH": "QVQLVQSGAEVKKPGASVKVSCKASGYTFSRYWIEWVRQAPGQGLEWMGEIFPGSGGTNYNEKFKGRVTMTRDTSTSTVYMELSSLRSEDTAVYYCARHLGALDYWGQGTLVTVSS", "VL": "EIVLTQSPGTLSLSPGERATLSCSASSSVSYIHWYQQKPGQAPRLLIYRTSNLASGIPDRFSGSGSGTDFTLTISRLEPEDFAVYYCQQYHSNPWTFGGGTKLEIKR", "notes": "Humanized full-length IgG; also called HC2 + LC2"}, "B3": {"name": "Chimeric VH+VL (Parental mouse VH+VL combined with human Fc) (antibody, human IgG1, kappa, V domains shown)", "VH": "QVQLQQSGAELMKPGASVKISCKATGYTFSRYWIEWVKQRPGHGLEWIGEIFPGSGGTNYNEKFKGKATFTADTSSNTAYMQLTSLTSEDSAVYYCARHLGALDYWGQGTSVTVSS", "VL": "QIVLTQSPAIMSASPGEKVTISCSASSSVSYIHWYQQKAGSSPKPWIYRTSNLASGVPARLSGSGSGTSYFLTISSMEAEDAATYYCQQYHSNPWTFGGGTKLEIKR", "notes": "also called chimeric antibody"}, "B4": {"name": "VH3 + VL4 (antibody, human IgG1, kappa, V domains shown)", "VH": "B2 VH", "VL": "DIVMTQSPDSLAVSLGERATINCSASSSVSYIHWYQQKPGQPPKLLIYRTSNLASGVPDRFSGSGSGTDFTLTISSLQAEDVAVYYCQQYHSNPWTFGGGTKLEIKR", "notes": "Humanized full-length IgG; also called HC2 + LC3"}, "B5": {"name": "VH4 + VL2 (antibody, human IgG1, kappa, V domains shown)", "VH": "EVQLVQSGAEVKKPGESLKISCKGSGYTFSRYWIEWVRQMPGKGLEWMGEIFPGSGGTNYNEKFKGQVTISADKSISTAYLQWSSLKASDTAMYYCARHLGALDYWGQGTLVTVSS", "VL": "DIQMTQSPSSLSASVGDRVTITCSASSSVSYIHWYQQKPGKAPKLLIYRTSNLASGVPSRFSGSGSGTDFTLTISSLQPEDFATYYCQQYHSNPWTFGGGTKLEIKR", "notes": "Humanized full-length IgG; also called HC3 + LC1"}}, "data": [{"molecular_target": "T1, full-length cynomolgus TIGIT on 293T cells (cynomolgus, UniProt A0A7N9I9V4 89-312)", "T1 construct": "whole, on cells; also called cynomolgus-expressing 293T cells", "T1 sequence (A0A7N9I9V4 entry or part of it)": "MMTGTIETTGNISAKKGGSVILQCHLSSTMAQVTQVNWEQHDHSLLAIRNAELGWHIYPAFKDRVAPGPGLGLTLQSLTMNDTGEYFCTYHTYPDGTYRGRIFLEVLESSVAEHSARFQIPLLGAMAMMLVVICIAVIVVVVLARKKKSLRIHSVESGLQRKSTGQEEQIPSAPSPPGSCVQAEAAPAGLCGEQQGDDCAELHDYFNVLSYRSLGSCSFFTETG", "experiment": "flow cytometry on 293T cells transfected with cynomolgus TIGIT, biotin-labeled antibody detected with Brilliant Violet 421 streptavidin, readout % of bound cells", "experimental": "A DNA encoding full-length cynomolgus TIGIT (NCBI Accession No: XP_015300911.1) was cloned into pcDNA3.4 vector (Invitrogen #A14697) and transfected into 293T cells (Cell Bank, Chinese Academy of Sciences, #SCSP-502) by using Polyethylenimine Max reagent (Polysciences #24765-2). 48 hours post-transfection, cynomolgus-expressing 293T cells were incubated with different concentrations of biotin-labeled (Thermo #21338) anti-TIGIT antibody VH2+VL4 at 4° C. for 20 minutes. Then cells were washed once by FACS buffer (PBS with 2% FBS) and incubated with Brilliant Violet 421 Streptavidin (Biolegend #405225) at 4° C. for 30 minutes. After washed once by FACS buffer, cells were resuspended in 200 μL FACS buffer. The cells after staining were analyzed by BD FACSCelesta Flow Cytometer.", "units": {"EC50": "nM"}, "values": [{"binder": "B1", "EC50": 0.02}]}, {"molecular_target": "T2, full-length human TIGIT on Jurkat/TIGIT cells (human, UniProt Q495A1 22-244)", "T2 construct": "whole, on cells; also called Human TIGIT-expressing Jurkat cells; TIGIT expressed on cell surface", "T2 sequence (looked up)": "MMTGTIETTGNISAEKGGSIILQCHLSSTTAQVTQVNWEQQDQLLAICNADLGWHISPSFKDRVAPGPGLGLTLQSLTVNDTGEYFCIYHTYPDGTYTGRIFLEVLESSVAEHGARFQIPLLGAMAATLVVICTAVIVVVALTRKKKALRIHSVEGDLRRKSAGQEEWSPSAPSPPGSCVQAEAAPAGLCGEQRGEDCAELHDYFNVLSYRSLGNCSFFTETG", "experiment": "flow cytometry on Jurkat/TIGIT cells, Alexa Fluor 594 goat anti-human IgG secondary antibody, readout % of bound cells", "experimental": "Jurkat/TIGIT cells were incubated with different concentrations of anti-TIGIT antibody VH2+VL4 or human IgG1 isotype control at 4° C. for 30 minutes. Then cells were washed once by FACS buffer (PBS with 2% FBS) and incubated with Alexa Fluor 594 AffiniPure Goat Anti-human IgG secondary antibody (Jackson ImmunoResearch #109-585-088) at 4° C. for 30 minutes. After washed once by FACS buffer, cells were resuspended in 200 μL FACS buffer. The cells after staining were analyzed by BD LSRFortessa Flow Cytometer.", "units": {"EC50": "nM"}, "values": [{"binder": "B1", "EC50": 1.13}]}, {"molecular_target": "T3, TIGIT (SPR analyte) (human, UniProt Q495A1 22-141, limits assumed)", "T3 construct": "the text says only 'TIGIT was used as the analyte'; The construct is not described; also called human TIGIT", "T3 sequence (looked up)": "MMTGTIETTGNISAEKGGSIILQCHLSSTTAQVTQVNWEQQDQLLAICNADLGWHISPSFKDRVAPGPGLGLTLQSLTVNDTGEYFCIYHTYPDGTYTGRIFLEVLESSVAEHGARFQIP", "experiment": "SPR (Biacore 8K), antibody captured through Fc, TIGIT as analyte", "experimental": "TIGIT was used as the analyte. The surface was regenerated before the injection of another antibody. The process was repeated until all antibodies are analyzed. The off-rates of antibodies were obtained from fitting the experimental data locally to 1:1 interaction model using the Biacore 8K evaluation software. The antibodies were ranked by their dissociation rate constants (off-rates, kd) (Table 1). Based on the ranking result, the top 4 clones were selected.", "units": {"Kd": "nM", "koff": "s⁻¹", "kon": "M⁻¹ s⁻¹"}, "values": [{"binder": "B2", "Kd": 0.111, "koff": "3.25e-05", "kon": 294000}, {"binder": "B3", "Kd": 0.179, "koff": "5.56e-05", "kon": 310000}, {"binder": "B1", "Kd": 0.101, "koff": "4.47e-05", "kon": 444000}, {"binder": "B4", "Kd": 0.11, "koff": "4.38e-05", "kon": 396000}, {"binder": "B5", "Kd": 0.122, "koff": "4.97e-05", "kon": 407000}]}, {"molecular_target": "T4, human TIGIT/mIgG2aFc recombinant protein (human, UniProt Q495A1 22-141)", "T4 construct": "range 22-141; In-house production; also called TIGIT/mIgG2aFc protein; human TIGIT/mIgG2aFc protein; not shown: mouse IgG2a Fc", "T4 sequence (looked up)": "T3 sequence (looked up)", "experiment": "ELISA, plate coated with human TIGIT/mIgG2aFc, anti-human IgG-HRP detection", "experimental": "MaxiSorp 96-well plates (NUNC #449824) were coated with 2 μg/mL human TIGIT/mIgG2aFc protein (in-house production, the method is well known in the art) in 1× PBS (50 μL/well). Plates were incubated at 4° C. overnight. Coating solution was removed and plates were washed once with 200 μL/well PBST (1× PBS containing 0.05% tween-20). Then 200 μL/well blocking buffer (1× PBS with 0.05% tween-20, 3% BSA) was added and incubated at room temperature for 1 hour. Blocking buffer was removed and plates were washed three times with 200 μL/well PBST. Antibody VH2+VL4 (produced in Example 2) and human IgG1 isotype control (hIgG1, Sigma #I5154-1MG) was diluted by 1× PBS and added to plates (50 μL/well). Plates were incubated at room temperature for 2 hours. Antibodies in the wells were removed and plates were washed three times with 200 μL/well PBST. Goat anti-human IgG(H&L)-HRP secondary antibody (Jackson Immuno Research #109-035-088) was diluted 1:5000 in 1× PBS and added to each well (50 μL/well). Plates were incubated at room temperature for 1 hour. Secondary antibody was removed and plates were washed five times with 200 μL/well PBST. 50 μL/well TMB (eBioscience #85-00-4201-56) was added and plates were incubated at room temperature for several minutes. Then 50 μL/well 2N H₂SO₄ was added to stop the reaction. Optical density was measured at 450 nm.", "units": {"EC50": "nM"}, "values": [{"binder": "B1", "EC50": 0.47}]}]}
